Laboratory results taken from the supplement of paper PMC5998384.

How the values were obtained:
HeLa Kyoto [1] = assay: thermal stability score vs G1/S (z-score of summed log2 fold changes over temperatures); higher = more thermally stable than in G1/S
HeLa Kyoto [2] = assay: solubility change mitosis vs G1/S (difference of NP-40 vs SDS log2 ratios) (log2 ratio difference); higher = more soluble in mitosis
HeLa Kyoto [3] = assay: melting temperature (median over replicates), in situ; higher = more thermally stable
HeLa Kyoto [4] = assay: solubility in G1/S (NP-40 vs SDS abundance) (log2 ratio); higher = more soluble; conditions: cell cycle stage: G1/S
[5] = cell cycle stage: early G1 (4.5 h after nocodazole release)
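Wherever melting temperature (median over replicates), in situ is given: HeLa Kyoto cells synchronized by double thymidine or nocodazole block, proteins quantified by TMT10plex mass spectrometry, three independent biological replicates.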
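Wherever solubility change mitosis vs G1/S (difference of NP-40 vs SDS log2 ratios) is given: synchronized HeLa Kyoto cells (double thymidine block for G1/S, nocodazole release for mitosis), protein amounts in NP-40 versus SDS lysates quantified by mass spectrometry, three biological replicates.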
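Wherever solubility in G1/S (NP-40 vs SDS abundance) is given: HeLa Kyoto cells arrested at G1/S by double thymidine block, proteins quantified by TMT10plex mass spectrometry in mild NP-40 versus SDS extracts, three biological replicates.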
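Wherever thermal stability score vs G1/S (z-score of summed log2 fold changes over temperatures) is given: synchronized HeLa Kyoto cells, proteins quantified by TMT10plex mass spectrometry, three biological replicates, mitosis taken 0.5 h after nocodazole release, G1/S directly after double thymidine block.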

Substance | thermal stability score (HeLa Kyoto [1]; [5]) | thermal stability score (HeLa Kyoto [1]; cell cycle stage: mitosis) | solubility change mitosis (log2) (HeLa Kyoto [2]) | melting temperature (HeLa Kyoto [3]; cell cycle stage: G1/S) | melting temperature (HeLa Kyoto [3]; cell cycle stage: mitosis) | solubility in G1/S (log2) (HeLa Kyoto [4])
MADKEKKKKESILDLSKYIDKTIRVKFQGGREASGILKGFDPLLNLVLDGTIEYMRDPDDQYKLTEDTRQLGLVVCRGTSVVLICPQDGMEAIPNPFIQQQDA [LSM7] | -1.51 | -2.73 | 0.227 | 55.3 °C | 53.7 °C | 0.0991
MEGAGENAPESSSSAPGSEESARDPQVPPPEEESGDCARSLEAVPKKLCGYLSKFGGKGPIRGWKSRWFFYDERKCQLYYSRTAQDANPLDSIDLSSAVFDCKADAEEGIFEIKTPSRVITLKAATKQAMLYWLQQLQMKRWEFHNSPPAPPATPDAALAGNGPVLHLELGQEEAELEEFLCPVKTPPGLVGVAAALQPFPALQNISLKHLGTEIQNTMHNIRGNKQAQGTGHEPPGEDSPQSGEPQREEQPLASDASTPGREPEDSPKPAPKPSLTISFAQKAKRQNNTFPFFSEGITRNRTAQEKVAALEQQVLMLTKELKSQKELVKILHKALEAAQQEKRASSAYLAAAEDKDRLELVRHKVRQIAELGRRVEALEQERESLAHTASLREQQVQELQQHVQLLMDKNHAKQQVICKLSEKVTQDFTHPPDQSPLRPDAANRDFLSQQGKIEHLKDDMEAYRTQNCFLNSEIHQVTKIWRKVAEKEKALLTKCAYLQARNCQVESKYLAGLRRLQEALGDEASECSELLRQLVQEALQWEAGEASSDSIELSPISKYDEYGFLTVPDYEVEDLKLLAKIQALESRSHHLLGLEAVDRPLRERWAALGDLVPSAELKQLLRAGVPREHRPRVWRWLVHLRVQHLHTPGCYQELLSRGQAREHPAARQIELDLNRTFPNNKHFTCPTSSFPDKLRRVLLAFSWQNPTIGYCQGLNRLAAIALLVLEEEESAFWCLVAIVETIMPADYYCNTLTASQVDQRVLQDLLSEKLPRLMAHLGQHHVDLSLVTFNWFLVVFADSLISNILLRVWDAFLYEGTKVVFRYALAIFKYNEKEILRLQNGLEIYQYLRFFTKTISNSRKLMNIAFNDMNPFRMKQLRQLRMVHRERLEAELRELEQLKAEYLERRASRRRAVSEGCASEDEVEGEA [TBC1D2] | 1.39 | 0.724 | -0.0396 | 49.7 °C | 49.4 °C | -0.179
MEPSSKKLTGRLMLAVGGAVLGSLQFGYNTGVINAPQKVIEEFYNQTWVHRYGESILPTTLTTLWSLSVAIFSVGGMIGSFSVGLFVNRFGRRNSMLMMNLLAFVSAVLMGFSKLGKSFEMLILGRFIIGVYCGLTTGFVPMYVGEVSPTALRGALGTLHQLGIVVGILIAQVFGLDSIMGNKDLWPLLLSIIFIPALLQCIVLPFCPESPRFLLINRNEENRAKSVLKKLRGTADVTHDLQEMKEESRQMMREKKVTILELFRSPAYRQPILIAVVLQLSQQLSGINAVFYYSTSIFEKAGVQQPVYATIGSGIVNTAFTVVSLFVVERAGRRTLHLIGLAGMAGCAILMTIALALLEQLPWMSYLSIVAIFGFVAFFEVGPGPIPWFIVAELFSQGPRPAAIAVAGFSNWTSNFIVGMCFQYVEQLCGPYVFIIFTVLLVLFFIFTYFKVPETKGRTFDEIASGFRQGGASQSDKTPEELFHPLGADSQV [SLC2A1] | -1.89 | -3.29 | -0.284 | 57.3 °C |  | 0.0648
MEGSLEREAPAGALAAVLKHSSTLPPESTQVRGYDFNRGVNYRALLEAFGTTGFQATNFGRAVQQVNAMIEKKLEPLSQDEDQHADLTQSRRPLTSCTIFLGYTSNLISSGIRETIRYLVQHNMVDVLVTTAGGVEEDLIKCLAPTYLGEFSLRGKELRENGINRIGNLLVPNENYCKFEDWLMPILDQMVMEQNTEGVKWTPSKMIARLGKEINNPESVYYWAQKNHIPVFSPALTDGSLGDMIFFHSYKNPGLVLDIVEDLRLINTQAIFAKCTGMIILGGGVVKHHIANANLMRNGADYAVYINTAQEFDGSDSGARPDEAVSWGKIRVDAQPVKVYADASLVFPLLVAETFAQKMDAFMHEKNED [DHPS] | -0.0223 | -1.85 | -0.0341 | 56.2 °C | 56.8 °C | 0.164
MSFICGLQSAARNHVFFRFNSLSNWRKCNTLASTSRGCHQVQVNHIVNKYQGLGVNQCDRWSFLPGNFHFYSTFNNKRTGGLSSTKSKEIWRITSKCTVWNDAFSRQLLIKEVTAVPSLSVLHPLSPASIRAIRNFHTSPRFQAAPVPLLLMILKPVQKLFAIIVGRGIRKWWQALPPNKKEVVKENIRKNKWKLFLGLSSFGLLFVVFYFTHLEVSPITGRSKLLLLGKEQFRLLSELEYEAWMEEFKNDMLTEKDARYLAVKEVLCHLIECNKDVPGISQINWVIHVVDSPIINAFVLPNGQMFVFTGFLNSVTDIHQLSFLLGHEIAHAVLGHAAEKAGMVHLLDFLGMIFLTMIWAICPRDSLALLCQWIQSKLQEYMFNRPYSRKLEAEADKIGLLLAAKACADIRASSVFWQQMEFVDSLHGQPKMPEWLSTHPSHGNRVEYLDRLIPQALKIREMCNCPPLSNPDPRLLFKLSTKHFLEESEKEDLNITKKQKMDTLPIQKQEQIPLTYIVEKRTGS [OMA1] | -1.79 | -1.54 | -0.0922 | 54.1 °C | 54.7 °C | -0.436
MAAVDSFYLLYREIARSCNCYMEALALVGAWYTARKSITVICDFYSLIRLHFIPRLGSRADLIKQYGRWAVVSGATDGIGKAYAEELASRGLNIILISRNEEKLQVVAKDIADTYKVETDIIVADFSSGREIYLPIREALKDKDVGILVNNVGVFYPYPQYFTQLSEDKLWDIINVNIAAASLMVHVVLPGMVERKKGAIVTISSGSCCKPTPQLAAFSASKAYLDHFSRALQYEYASKGIFVQSLIPFYVATSMTAPSNFLHRCSWLVPSPKVYAHHAVSTLGISKRTTGYWSHSIQFLFAQYMPEWLWVWGANILNRSLRKEALSCTA [HSDL1] | -1.62 | -2.08 | -0.155 | 57.5 °C | 54.3 °C | -0.127
MVLAELYVSDREGSDATGDGTKEKPFKTGLKALMTVGKEPFPTIYVDSQKENERWNVISKSQLKNIKKMWHREQMKSESREKKEAEDSLRREKNLEEAKKITIKNDPSLPEPKCVKIGALEGYRGQRVKVFGWVHRLRRQGKNLMFLVLRDGTGYLQCVLADELCQCYNGVLLSTESSVAVYGMLNLTPKGKQAPGGHELSCDFWELIGLAPAGGADNLINEESDVDVQLNNRHMMIRGENMSKILKARSMVTRCFRDHFFDRGYYEVTPPTLVQTQVEGGATLFKLDYFGEEAFLTQSSQLYLETCLPALGDVFCIAQSYRAEQSRTRRHLAEYTHVEAECPFLTFDDLLNRLEDLVCDVVDRILKSPAGSIVHELNPNFQPPKRPFKRMNYSDAIVWLKEHDVKKEDGTFYEFGEDIPEAPERLMTDTINEPILLCRFPVEIKSFYMQRCPEDSRLTESVDVLMPNVGEIVGGSMRIFDSEEILAGYKREGIDPTPYYWYTDQRKYGTCPHGGYGLGLERFLTWILNRYHIRDVCLYPRFVQRCTP [NARS] | 3.39 | 4 | -0.124 | 52.6 °C | 53.1 °C | -0.0613
MASDEGKLFVGGLSFDTNEQSLEQVFSKYGQISEVVVVKDRETQRSRGFGFVTFENIDDAKDAMMAMNGKSVDGRQIRVDQAGKSSDNRSRGYRGGSAGGRGFFRGGRGRGRGFSRGGGDRGYGGNRFESRSGGYGGSRDYYSSRSQSGGYSDRSSGGSYRDSYDSYATHNE [CIRBP] | -0.492 | -2.78 | 0.112 | 52.8 °C | 53 °C | -0.000215
MAGSYPEGAPAILADKRQQFGSRFLSDPARVFHHNAWDNVEWSEEQAAAAERKVQENSIQRVCQEKQVDYEINAHKYWNDFYKIHENGFFKDRHWLFTEFPELAPSQNQNHLKDWFLENKSEVCECRNNEDGPGLIMEEQHKCSSKSLEHKTQTPPVEENVTQKISDLEICADEFPGSSATYRILEVGCGVGNTVFPILQTNNDPGLFVYCCDFSSTAIELVQTNSEYDPSRCFAFVHDLCDEEKSYPVPKGSLDIIILIFVLSAVVPDKMQKAINRLSRLLKPGGMVLLRDYGRYDMAQLRFKKGQCLSGNFYVRGDGTRVYFFTQEELDTLFTTAGLEKVQNLVDRRLQVNRGKQLTMYRVWIQCKYCKPLLSSTS [METTL2B] | -0.391 | 1.29 | -0.231 | 48.6 °C | 48.9 °C | 0.19
MDDQQALNSIMQDLAVLHKASRPALSLQETRKAKSSSPKKQNDVRVKFEHRGEKRILQFPRPVKLEDLRSKAKIAFGQSMDLHYTNNELVIPLTTQDDLDKAVELLDRSIHMKSLKILLVINGSTQATNLEPLPSLEDLDNTVFGAERKKRLSIIGPTSRDRSSPPPGYIPDELHQVARNGSFTSINSEGEFIPESMDQMLDPLSLSSPENSGSGSCPSLDSPLDGESYPKSRMPRAQSYPDNHQEFSDYDNPIFEKFGKGGTYPRRYHVSYHHQEYNDGRKTFPRARRTQGTSLRSPVSFSPTDHSLSTSSGSSIFTPEYDDSRIRRRGSDIDNPTLTVMDISPPSRSPRAPTNWRLGKLLGQGAFGRVYLCYDVDTGRELAVKQVQFDPDSPETSKEVNALECEIQLLKNLLHERIVQYYGCLRDPQEKTLSIFMEYMPGGSIKDQLKAYGALTENVTRKYTRQILEGVHYLHSNMIVHRDIKGANILRDSTGNVKLGDFGASKRLQTICLSGTGMKSVTGTPYWMSPEVISGEGYGRKADIWSVACTVVEMLTEKPPWAEFEAMAAIFKIATQPTNPKLPPHVSDYTRDFLKRIFVEAKLRPSADELLRHMFVHYH [MAP3K2] | 0.798 | 1.24 | -0.043 | 51.3 °C | 51.4 °C | 0.0839
XRN1 | 0.741 | 0.939 | -0.0622 | 49 °C | 48.5 °C | -0.345
MEVSGPEDDPFLSQLHQVQCPVCQQMMPAAHINSHLDRCLLLHPAGHAEPAAGSHRAGERAKGPSPPGAKRRRLSESSALKQPATPTAAESSEGEGEEGDDGGETESRESYDAPPTPSGARLIPDFPVARSSSPGRKGSGKRPAAAAAAGSASPRSWDEAEAQEEEEAVGDGDGDGDADADGEDDPGHWDADAAEAATAFGASGGGRPHPRALAAEEIRQMLQGKPLADTMRPDTLQDYFGQSKAVGQDTLLRSLLETNEIPSLILWGPPGCGKTTLAHIIASNSKKHSIRFVTLSATNAKTNDVRDVIKQAQNEKSFFKRKTILFIDEIHRFNKSQQDTFLPHVECGTITLIGATTENPSFQVNAALLSRCRVIVLEKLPVEAMVTILMRAINSLGIHVLDSSRPTDPLSHSSNSSSEPAMFIEDKAVDTLAYLSDGDARAGLNGLQLAVLARLSSRKMFCKKSGQSYSPSRVLITENDVKEGLQRSHILYDRAGEEHYNCISALHKSMRGSDQNASLYWLARMLEGGEDPLYVARRLVRFASEDIGLADPSALTQAVAAYQGCHFIGMPECEVLLAQCVVYFARAPKSIEVYSAYNNVKACLRNHQGPLPPVPLHLRNAPTRLMKDLGYGKGYKYNPMYSEPVDQEYLPEELRGVDFFKQRRC [WRNIP1] | 2.61 | 5.06 | -0.0694 | 47.5 °C | 49.3 °C | 0.228
MSGSFELSVQDLNDLLSDGSGCYSLPSQPCNEVTPRIYVGNASVAQDIPKLQKLGITHVLNAAEGRSFMHVNTNANFYKDSGITYLGIKANDTQEFNLSAYFERAADFIDQALAQKNGRVLVHCREGYSRSPTLVIAYLMMRQKMDVKSALSIVRQNREIGPNDGFLAQLCQLNDRLAKEGKLKP [DUSP3] | 0.0996 | -0.0543 | 0.131 | 50.4 °C | 51 °C | 0.676
MALLTAAARLLGTKNASCLVLAARHASASSTNLKDILADLIPKEQARIKTFRQQHGKTVVGQITVDMMYGGMRGMKGLVYETSVLDPDEGIRFRGFSIPECQKLLPKAKGGEEPLPEGLFWLLVTGHIPTEEQVSWLSKEWAKRAALPSHVVTMLDNFPTNLHPMSQLSAAVTALNSESNFARAYAQGISRTKYWELIYEDSMDLIAKLPCVAAKIYRNLYREGSGIGAIDSNLDWSHNFTNMLGYTDHQFTELTRLYLTIHSDHEGGNVSAHTSHLVGSALSDPYLSFAAAMNGLAGPLHGLANQEVLVWLTQLQKEVGKDVSDEKLRDYIWNTLNSGRVVPGYGHAVLRKTDPRYTCQREFALKHLPNDPMFKLVAQLYKIVPNVLLEQGKAKNPWPNVDAHSGVLLQYYGMTEMNYYTVLFGVSRALGVLAQLIWSRALGFPLERPKSMSTEGLMKFVDSKSG [CS] | 1.01 | 0.1 | -0.0123 | 52 °C | 51.9 °C | 0.519
